{"source": "the DeepSol protein solubility set", "data": [{"test": "soluble on expression in E. coli; label from the status in PepcDB or PDB records", "values": [{"sequence": "MSLASVKEAAAVRPPLNQILFGPPGTGKTYEAIEKALEILDPSFLLQLGDDESNERRRALKRRYDELAKEGLVQFVTFHQSFSYENFVEGLSASSDPDTKQVRYEVEDGVFKELCESARTRLVRRSDDAPLELSGRRIWKLSLGDSITEGHIFEECMEKGLALMGFGNNADFSQCQSREDIQKMFAASGEPLSLGAYPITAIKTFVCQMKLGDLIVVSEGNLKFRAIGEITGDYQLLPRDSDTYSQARPVRWLRGYKPALPYGALMENRFSQMTVYELRAGSIDHDKFRELLKSECIATGADRPHVLIIDEINRGNVSRIFGELITLIEPSKRSGAAEALEVLLPYSKDPFSVPDNVYLIGTMNTADRSLAGLDIALRRRFDFVEMAPRPDKLTGVKVAEIDISAVLETMNRRIEVLLDREHRLGHAYFMSLENSNDLSRLSNIFRQQIIPLLQEYFFEDWQRIAWILNDHRKDERFRFIVPAPYSVDSLFGDTGQVAQDSKAWRMNEEAFHKPQSYLGIVGDGKEGHHHHHH", "soluble on expression in E. coli": "soluble"}, {"sequence": "MGSDKIHHHHHHMKEAKKIDISKLKTGFLGKFPSHQLSRILSSEPDRLTEPEFLAKALKENKYVPYYYINVRENPTSIKIYRYVTKISNRDNDIDEVKNKFDSFLYGKSIVILDEVDFLQDYDVLYHITRHTKANLILLTQKVYWYMDTNDESVKSSLQPDHIVFYEYSSDEIREILKMRADEGLNKYDPDSLGLLSAMLVRNYRSDARIGIKALEIIGRMNEWDDDSVRTALKQAYVEVEGETLKNLGDRDLLILAALIKNQDTNRAYSEVSASSNLLLRGVSKSTFF", "soluble on expression in E. coli": "not soluble"}, {"sequence": "KIRDELRAERTFIDQALDSLADIFYVIDSAGTVQRCNEQFATLAGYADEKISDLDALSLFPEEEREGVSEAIEEALTTGQSTIEAEFRTAAGKRVPHEFTADRLTDQDGDLIGLVGTGRDIS", "soluble on expression in E. coli": "not soluble"}, {"sequence": "MHFGKHNVDFMLPSLRKEWEDPEKIVSQIPIQPNFDIVDLGCGPGFFTLPLSETTDGKVYAIDASQEMIDALKQRIDGRSNIVTIKAPAEKIPLPDLSADLVFIANAYHDFDDRDEVLSEIYRILRAGRFLVDIDWKKEETTRGPPIDIRIDKKEAMLEIASHNFDIESEIEAGPHHYGLIFKKILEHHHHHH", "soluble on expression in E. coli": "soluble"}, {"sequence": "MSLIKTEFKGNNIPYEYAAGADVSDSINGNPIKSFPFEVIELPEGTKYLAWSLIDYDAIPVCGFAWIHWSVANVSVSGNSISIKADLSRTKGDYVQGKNSFTSGLLAEDFSEIENHYVGPTPPDQDHQYELTVYALDHSLNLKNGFYLNEFLKEVNQHKIDQTSINLIGRKEGGSHHHHHH", "soluble on expression in E. coli": "soluble"}, {"sequence": "MKKGSRHNFVVSQENWTLHRKGYQDQRRHQEKVKEAIRKNLPDLVSEENIIMSNGREVIKIPIRSLDEYKIRYNYDKNKHVGQGDGDSQVGDVIARDPSAGQQGPGKGQGAGDQPGEDYFEAEVSILELEELLFRELELPNLQQKEEDHLVVEHIEFNDIRKKGLMGNIDKRRTILSAIKRNALEGRPGLIPIYNDDLRFKTWNEVVRPESKAVVLAMMDTSGSMGRWEKYMARSFFFWMTRFLRTKYETVDIEFIAHHTEAKVVSEEDFFSKGESGGTICSSAYRKALELINEKYDPARYNIYPFHFSDGDNLTSDNARCLKLVHELMESSSMFGYGEVNQYSRHSTLMNAYKNLKDPRFRSYVLKEKGDVYRAMKTFFKKEEEAVSAAALEHHHHHH", "soluble on expression in E. coli": "soluble"}, {"sequence": "MGSDKIHHHHHHMVVASVVLWGKHVGAVLWNYDKGYATFEFEAGFLKSGLDVAPLTMPLANVSKGEIFQFAQLPKETFHGLPGLLSDALPDRFGNQLIDLWLASQGRDKASMSPVERLCYLGTRGMGALEFEPTVRNEKEPSKGLEIGALVELSKKALSMKASLDSHFSKEDAETFADIIKVGTSAGGARAKAVIAYNEQTGEVRSGQLHSPAGFEHWLIKFDGVTNEQLGDPKGYGRIEYAYYKMAIDADIIMMPSLLLEEGGRAHFMTKRFDRIVNNEKLHMQTLCGLCHFDYNNPEAYAYEQAFQAMRQLRLPYTDAEQLYIRMVFNVVARNQDDHTKNISFLMDKTGNWSLSPAYDVSYAYNPENKWIAKHQLAVNGKRENIMREDLLSVAKQMNIKKPKEIIEKITAVVSNWEGYAQEAGVPKNQITALGKTHLLKM", "soluble on expression in E. coli": "not soluble"}, {"sequence": "MTDIPHDHPRYESLLAREKVAAGVKMGITSIQGLIAQGRGESFDYLIGERSTESALYAERAAVAALLLAENPVISVNGNVAALAPDKVVTLADITGARIEVNLFHRTDTRVHLIIEQLKASGAAEVLGKNPDASLELSHDRRLVSSKGIYTADVVLVPLEDGDRCEKLVEMGKTVITIDLNPLSRTSKTATISIVDNLTRALGNMAKFAQEMKKERKEELVKLITTYDNKRTLSEAISEIQEHLKTMAAETGLEHHHHHH", "soluble on expression in E. coli": "soluble"}, {"sequence": "MSIAEFAYKEKPETLVLFDVDGTLTPARLTVSEEVRKTLAKLRNKCCIGFVGGSDLSKQLEQLGPNVLDEFDYSFSENGLTAYRLGKELASQSFINWLGEEKYNKLAVFILRYLSEIDLPKRRGTFLEFRNGMINVSPIGRNASTEERNEFERYDKEHQIRAKFVEALKKEFPDYGLTFSIGGQISFDVFPAGWDKTYCLQHVEKDGFKEIHFFGDKTMVGGNDYEIFVDERTIGHSVQSPDDTVKILTELFNL", "soluble on expression in E. coli": "soluble"}, {"sequence": "MIGNILVAHGMRKGNQNEALEEFIGTLLKDEQYYYELAFLESETQNLEIIMEKMIKQGITKFRIVPLLIFSAMHYISDIPQILKEMKARYPQIDSKMSAPLGTHPYMKTLVENRIAEEKVSEGSTKATIVIAHGNGSGRFTKAHDELKAFVKTLDSHHPVYARALYGTLAFKNDLDKISEQYDELVIVPLFLFDGRLVNKVKRLLGEMTLHSQLHITPSINFDPILRLIIRERLEALDILEHHHHHH", "soluble on expression in E. coli": "soluble"}, {"sequence": "MGSDKIHHHHHHMRRLPPLNALQIFETVARHRSFTRAADHLCLTQGAVSRQIIALEDYYKFPLFKRHAKGLTLTAEGELLLPAVKESFARIEEISLRLTRQRTDLALKVPTCVMRWMLPKIMRFQAEYPELHVQITTTWQHDVDFQLEPFDAAIIYGSSPGADVQAVPLFEERLTPVCAPDLLKDKPLAELADLARHTLLHPTRDHRDWKMWLARVTEMGAANAPVIDAEHGPSFDTLDMATNAALQGFGVAISDLALIDEDVAAKRLVRPFDTVLKTGWRYYFVYPDSVAHQQKLNLFRDWIAAHWEE", "soluble on expression in E. coli": "not soluble"}, {"sequence": "HTERVGWLSGRIAEEMGMSEVFVTEIQFAAPLHDIGKIGIPDRILLKPGILTPEEFEIMKQHTTIGFRILSRSNSPILQLGAEIALTHHERWDGSGYPRGLKEREIPISGLIVAVADSFDA", "soluble on expression in E. coli": "not soluble"}, {"sequence": "MASNMDREMILADFQACTGIENIDEAITLLEQNNWDLVAAINGVIPQENGILQSEYGGETIPGPAFNPASHPASAPTSSSSSAFRPVMPSRQIVERQPRMLDFRVEYRDRNVDVVLEDTCTVGEIKQILENELQIPVSKMLLKGWKTGDVEDSTVLKSLHLPKNNSLYVLTPDLPPPSSSSHAGALQESLNQNFMLIITHREVQREYNLNFSGSSTIQEVKRNVYDLTSIPVRHQLWEGWPTSATDDSMCLAESGLSYPCHRLTVGRRSSPAQTREQSEEQITDVHMVSDSDGDDFEDATEFGVDDGEVFGMASSALRKSPMMPENAENEGDALLQFTAEFSSRYGDCHPVFFIGSLEAAFQEAFYVKARDRKLLAIYLHHDESVLTNVFCSQMLCAESIVSYLSQNFITWAWDLTKDSNRARFLTMCNRHFGSVVAQTIRTQKTDQFPLFLIIMGKRSSNEVLNVIQGNTTVDELMMRLMAAMEIFTAQQQEDIKDEDEREARENVKREQDEAYRLSLEADRAKREAHEREMAEQFRLEQIRKEQEEEREAIRLSLEQALPPEPKEENAEPVSKLRIRTPSGEFLERRFLASNKLQIVFDFVASKGFPWDEYKLLSTFPRRDVTQLDPNKSLLEVKLFPQETLFLEAKE", "soluble on expression in E. coli": "soluble"}, {"sequence": "MTAGVTTGAFYKHFTSKEALFEEIIQPHINALINMYNEEFAKYLLNLENIDIEKSWRENFNELDPFINYIFENKRIFDLVLFQSAGTKYQDIVEKITSFVTKKTVCCLDKLKTIGMINQNLVFNEEEIHFYIYSFYATFYDILKHSYSKEKTMLLTRRLYQFSVPGWIELLS", "soluble on expression in E. coli": "not soluble"}, {"sequence": "MHENMKDSLKRPLQDLRISVIDRCNFRCTYCMPAEVFGPDYAFLQEECLLTFDEIERLARLFISMGVNKIRLTGGEPLLRKDLPKLIARLAKLEGLKDIGLTTNGIHLAKQAKALKEAGLKRVNISLDAIEDRVFQKINGRHVSTKPVLKGIEAAKEAGLEVKVNMVVKKGMNDSQILPMAQYFKEQEIQLRFIEFMDVGSTNGWNFEQVVTKEQLIEKINRVYPIEPVKPRYFGEVAKLYRYVGNDAEVGFITSVSESFCSSCTRARISADGKFYTCLFGEKGTDLRSLLRENISDASLLKILQHTWEFRTDRYSDERTAESTNKRQKVEMSYIGG", "soluble on expression in E. coli": "not soluble"}, {"sequence": "MSDSSHAFSATERAAVYRAIAERRDMRHFSGGSVAPELLARLLEAAHQAPSVGLMQPWRFIRITEPALRRAIHGLVEEERGRTAEALGERSDEFMRLKVEGVLDCAELLVAALMDDRERHVFGRRTLPQMDLASLACAIQNLWLASRAEGLGMGWVSLFDPAALGELLGLPPGSEAVAVLCLGPVAEFYPAPMLALEGWSEPRPLAELVYQNRWGERA", "soluble on expression in E. coli": "not soluble"}, {"sequence": "MGHHHHHHSHMASRWQNMGTSVRRRSLQHQEQLEDSKELQPVVSHQETSVGALGSLCRQFQRRLPLRAVNLNLRAGPSWKRLETPEPGQQGLQAAARSAKSALGAVSQRIQESCQSGTKWLVETQVKARRRKRGAQKGSGSPTHSLSQKSTRLSGAAPAHSAADPWEKEHHRLSVRMGSHAHPLRRSRREAAFRSPYSSTEPLCSPSESDSDLEPVGAGIQHLQKLSQELDEAIMAEERKQALSDRQGFILKDVYASP", "soluble on expression in E. coli": "not soluble"}, {"sequence": "MSNAYEEYMRQMVIPMRQELVRSGFEELTTEEAVTEFMENTSGTTLVVVNSVCGCAAGLARPSAGQAVVRAEKQPDHLVTVFAGQDKDATAKMREYFGEIPPSSPSMALLKGKEVVHFIHRHEIEGATMDEIITNLEQAFEKNC", "soluble on expression in E. coli": "soluble"}, {"sequence": "MSGEEKEKVKILHVANISTSATRDHIYNMFNYLGKIQDLKVYPSEGNITANTLLKTAFIKFDDERCVEVAQHLTNTVVIDCAIVCLPYPNPVIPDEESFFNSGGSTTAGQRQLPPHVTNKIQESDDGSALLITVDPTLEQLGLPAYPPLPADTDSAKVEEIRRTVYVGNLPKGVDGNEVLELFNMYFGEVMYARMASGPDALPCAYAYVEFSQQASVCNALQNDGFEFKERPLKIQHSRVAIIKPQAKTDEQALGEIEEAIRMGRNGDDRDRRRSRSPRRRRSPSPRRRRDSRDRDRDRDRDRRRSRDRRSRSRDRDRDRDRKRSRSRDRKRRSRSRDNKDRDRKRSRSRDRRRRSKSRDRKRERSRSRSKDRKRDKKRSRSRSPEKRRDKEDRKTEKKENENESSLREKLLEKKAARKDSSDDEWEEKPTPTNGEVKNEEIGNGDVVMASE", "soluble on expression in E. coli": "soluble"}, {"sequence": "STQEQTPQICVVGSGPAGFYTAQHLLKHHSRAHVDIYEKQLVPFGLVRFGVAPDHPEVKNVINTFTQTARSDRCAFYGNVEVGRDVTVQELQDAYHAVVLSYGAEDHQALDIPGEELPGVFSARAFVGWYNGLPENRELAPDLSCDTAVILGQGNVALDVARILLTPPDHLEKTDITEAALGALRQSRVKTVWIVGRRGPLQVAFTIKELREMIQLPGTRPMLDPADFLGLQDRIKEAARPRKRLMELLLRTATEKPGVEEAARRASASRAWGLRFFRSPQQVLPSPDGRRAAGIRLAVTRLEGIGEATRAVPTGDVEDLPCGLVLSSIGYKSRPIDPSVPFDPKLGVVPNMEGRVVDVPGLYCSGWVKRGPTGVITTTMTDSFLTGQILLQDLKAGHLPSGPRPGSAFIKALLDSRGVWPVSFSDWEKLDAEEVSRGQASGKPREKLLDPQEMLRLLGH", "soluble on expression in E. coli": "soluble"}]}]}
